Assay results reported in patent publication US20090131638A1 (Eli Lilly, published 2009).

B1: Fab 3-74/C1E4 (Fab, V domains shown)
VH: EVQLVESGGGLVQPGGSLRLSCAASGLTFSRYPMSWVRQAPGKGLEWVSAITSSGGSTYYSDTVKGRFTISRDNAKNTLYLQMNSLRAEDTAVYYCARLPDYWGQGTLVTVSS
VL: EIVLTQSPGTLSLSPGERATLSCRASSSVSSSYLHWYAAKPGQAPRLLIYSTSNLVAGIPDRFSGSGSGTDFTLTISRLEPEDFAVYYCQHYSGYHFTFGGGTKVEIK
B2: Full-length monoclonal antibody 3-74/C1E4 (operably linked to an IgG4 Fc region) (antibody, V domains shown)
VH: EVQLVESGGGLVQPGGSLRLSCAASGLTFSRYPMSWVRQAPGKGLEWVSAITSSGGSTYYSDTVKGRFTISRDNAKNTLYLQMNSLRAEDTAVYYCARLPDYWGQGTLVTVSS
VL: EIVLTQSPGTLSLSPGERATLSCRASSSVSSSYLHWYAAKPGQAPRLLIYSTSNLVAGIPDRFSGSGSGTDFTLTISRLEPEDFAVYYCQHYSGYHFTFGGGTKVEIK
notes: also called Mab 3-74/C1E4

Experiments:
[1] = biological target: T1, human mature myostatin (dimeric form) (human, UniProt O14793 267-375); experiment: cell-based or functional assay
T1 sequence: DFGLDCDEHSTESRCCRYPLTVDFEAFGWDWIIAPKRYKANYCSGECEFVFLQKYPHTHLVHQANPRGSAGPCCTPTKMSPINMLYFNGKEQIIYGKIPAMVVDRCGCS

recombinant human GDF-11 = biological target: T2, recombinant human GDF-11 (human, UniProt O95390 299-407); experiment: cell-based or functional assay
T2 sequence (looked up): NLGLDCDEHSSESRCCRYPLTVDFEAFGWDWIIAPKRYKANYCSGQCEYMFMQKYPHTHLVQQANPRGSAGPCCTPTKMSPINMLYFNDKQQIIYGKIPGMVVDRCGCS

[2] = biological target: T1, human mature myostatin (dimeric form); experiment: KINEXA kinetic assay, 2 pM antibody mixed with 20 pM GDF-8
Protocol: (§1) Binding affinity measurements for full-length monoclonal antibodies of the invention are determined using a Sapidyne KINEXA assay. NHS-activated fast-flow sepharose beads (GE Healthcare) are pre-coated with […] and blocked with 10 mg/ml BSA in 1 M Tris-HCl, pH 8.0. Then 2 pM, 4 pM, 40 pM of an antibody of the invention (e.g., 3-74/C1E4) is incubated with various concentration (e.g., 2.4 pM to 10 nM, serial dilutions) of myostatin in running buffer (PBS, 0.005% (v/v) Tween-20 and 1 mg/ml ovalbumin) for 10 hours at room temperature. […] The amount of bead-bound antibody is then quantified by passing a solution of fluorescent (Cy5) labeled goat ant-human Fc antibody (Jackson Immuno Research) diluted 1:4000 in running buffer over the beads. The measured fluorescence signal is proportional to the concentration of free antibody at equilibrium. Each concentration of myostatin is measured in duplicate. […]
(§2) The association rate constant (kₒₙ) for GDF-8 binding is also determined using a Sapidyne KINEXA assay. […] The dissociation rate constant (koff) is calculated using the expression koff=KD×kₒₙ. Full-length monoclonal antibody 3-74/C1E4 (operably linked to an IgG₄ Fc region) was measured using the described assay, the results obtained are listed below in Table 3.

[3] = biological target: T1, human mature myostatin (dimeric form); experiment: KINEXA, calculated as KD x kon
Protocol: as §1, §2

[4] = biological target: T1, human mature myostatin (dimeric form); experiment: KINEXA equilibrium assay, antibody and myostatin in solution, room temperature
Protocol: Binding affinity measurements for full-length monoclonal antibodies of the invention are determined using a Sapidyne KINEXA assay. NHS-activated fast-flow sepharose beads (GE Healthcare) are pre-coated with […] and blocked with 10 mg/ml BSA in 1 M Tris-HCl, pH 8.0. Then 2 pM, 4 pM, 40 pM of an antibody of the invention (e.g., 3-74/C1E4) is incubated with various concentration (e.g., 2.4 pM to 10 nM, serial dilutions) of myostatin in running buffer (PBS, 0.005% (v/v) Tween-20 and 1 mg/ml ovalbumin) for 10 hours at room temperature. To determine the free antibody present at equilibrium, each sample is passed through the myostatin-coated beads. The amount of bead-bound antibody is then quantified by passing a solution of fluorescent (Cy5) labeled goat ant-human Fc antibody (Jackson Immuno Research) diluted 1:4000 in running buffer over the beads. The measured fluorescence signal is proportional to the concentration of free antibody at equilibrium. Each concentration of myostatin is measured in duplicate. The equilibrium dissociation constant (KD) is obtained from non-linear regression of the competition curves using a multiple-curve, one-site homogeneous binding model (KINEXA software).

Binder	IC50 GDF8 (myostatin/SBE luciferase reporter assay, 293E cells) [1] [nM]	IC50 GDF11 (GDF-11/SBE luciferase reporter assay, 293E cells) (recombinant human GDF-11) [nM]	kon [2] [M⁻¹ s⁻¹]	koff [3] [s⁻¹]	Kd [4] [nM]
B1	1	4			
B2			1.49e+06	2.08e-06	0.00139
